Assay results published in patent US20250011363A1, “OPTIMIZED SHORTENED PEPTIDE THAT BINDS TO ACETYLCHOLINE RECEPTOR, AND USE THEREOF” (SKINMED CO., LTD., priority 2021, published 2025).

Molecular target: acetylcholine receptor
Assay: SPR, AchR immobilised on CM5 chip, peptide 10 uM

| Binding affinity (RU) | Binder |
| --- | --- |
| 31 | KKDHKK [6mer-1-1049] |
| 43 | KKKSFK [6mer-1-1051] |
| 37 | KRDAWR [6mer-1-1019] |
| 43 | RRKSHK [6mer-1-978] |
| 35 | RKKPEK [6mer-1-1011] |
| 21 | RRKKIR [6mer-1-1038] |
| 39 | RRPPWK [6mer-1-996] |
| 30 | KRHMVK [6mer-1-1033] |
| 26 | KRAHDK [6mer-1-993] |
| 35 | KKPTFR [6mer-1-997] |
| 29 | KKTTNK [6mer-1-1013] |
| 21 | RKPWAR [6mer-1-1008] |
| 38 | KKMEAK [6mer-1-1020] |
| 42 | RRYWEK [6mer-1-979] |
| 34 | RRCHHR [6mer-1-1035] |
| 30 | RKKCER [6mer-1-1026] |
| 30 | KKFCFR [6mer-1-1030] |
| 22 | RKASIK [6mer-1-975] |
| 25 | RKAHDK [6mer-1-991] |
| 41 | KKHDIK [6mer-1-1021] |
| 33 | KRFAKR [6mer-1-1025] |
| 35 | RRAWVR [6mer-1-1012] |
| 26 | KREEWR [6mer-1-1015] |
| 38 | RKDTHK [6mer-1-1031] |
| 27 | KKTSMR [6mer-1-1032] |
| 24 | RKATNR [6mer-1-999] |

| Binding affinity (RU) | Binder |
| --- | --- |
| 39 | RKPTDR [6mer-1-1007] |
| 38 | KRPHKK [6mer-1-983] |
| 36 | RRHCWR [6mer-1-1028] |
| 40 | RKEMIK [6mer-1-976] |
| 39 | KRIMHK [6mer-1-1023] |
| 43 | RRPCFR [6mer-1-977] |
| 35 | KRCPDR [6mer-1-982] |
| 27 | RKDDKK [6mer-1-981] |
| 28 | KKTAFK [6mer-1-1018] |
| 21 | KKITFR [6mer-1-1036] |
| 22 | KKAEEK [6mer-1-986] |
| 23 | RKEHGK [6mer-1-1041] |
| 41 | KRNPVK [6mer-1-998] |
| 28 | RRCTAK [6mer-1-992] |
| 30 | KRAAHR [6mer-1-1043] |
| 27 | KRATVR [6mer-1-989] |
| 33 | KRCHHR [6mer-1-995] |
| 36 | RRKNNR [6mer-1-1037] |
| 36 | RRCMMK [6mer-1-1048] |
| 22 | KRKSER [6mer-1-985] |
| 21 | KRHTHR [6mer-1-1016] |
| 27 | KKTPGR [6mer-1-1045] |
| 37 | KRANMK [6mer-1-1017] |
| 27 | RKPAHK [6mer-1-974] |
| 26 | RKPPDR [6mer-1-1005] |
| 34 | RRTEFK [6mer-1-987] |

| Binding affinity (RU) | Binder |
| --- | --- |
| 28 | RKMSHR [6mer-1-1000] |
| 22 | RKDTVR [6mer-1-1022] |
| 40 | RRFTER [6mer-1-990] |
| 33 | RKICAK [6mer-1-980] |
| 24 | KKHHIR [6mer-1-1044] |
| 24 | KKASDR [6mer-1-1034] |
| 28 | KRIEFR [6mer-1-1040] |
| 25 | KKDKIK [6mer-1-1006] |
| 25 | KKNAWR [6mer-1-1014] |
| 33 | KKESDK [6mer-1-984] |
| 40 | RRCMAK [6mer-1-1029] |
| 38 | KKMEDR [6mer-1-1050] |
| 24 | KRYPDR [6mer-1-988] |
| 40 | KKITAR [6mer-1-1042] |
| 29 | RKMSKK [6mer-1-1009] |
| 33 | KKPKHK [6mer-1-1010] |
| 33 | KRHWIR [6mer-1-1052] |
| 40 | KRADIK [6mer-1-1039] |
| 37 | KKHEFR [6mer-1-994] |
| 22 | KKPWHK [6mer-1-1027] |
| 30 | RKATDK [6mer-1-1047] |
| 36 | RKTEIR [6mer-1-1024] |
| 24 | RKYCHR [6mer-1-1003] |
| 38 | RKDPHR [6mer-1-1046] |
| 29 | KRIHMK [6mer-1-1002] |
| 41 | RKHSHR [6mer-1-1004] |
